# Results taken from paper PMC5923107 (Antimicrobial Agents and Chemotherapy, 2018).
# B1: TRL854 (antibody, V domains shown)
# VH: QVQLVESGAEVKKPGASVRVSCKGSGYTFTAYHMHWVRQAPGQGFEWVGWINPNSGATYYTSTFEGRVTMTRDTSITTAYMELSSLRSDDTAVYYCATDIVVERDASLGGFNSYGMDVWGQGTTVTVSS
# VL: DIEMTQSPLSLPVTPGEPASISCRSSQSLLHSNGYNHLAWYLQKPGRSPHLLIYLASTRASGVPDRFSGSGSGTDFTLKISRVEAEDVGIYYCMQSLQTSITFGQGTRLEIK
# notes: also called MAb TRL854
# B2: TRL847 (antibody, V domains shown)
# VH: QVQLVESGGGLVQPGGSLRLSCVASGFTFSRFSMNWVRQAPGMGLEWVSYISDTGRTIYYADSVKGRFTISRDNDKNTLYLQMKSLRDEDSAFYYCARDPDTPFVRAFDSWGQGVLVTVSS
# VL: DIVMTQSPSFLSASVGDRVTITCRTSQVISSYLAWYQQRPGKAPKLLIYAASTLQSGVPSRFSGSGSGTRFSLTISNLQPEDFATYFCQQLTTYPPITFGQGTRLEIK
# notes: also called MAb TRL847
# B3: TRL849 (antibody, V domains shown)
# VH: QVQLVESGPGLVKPSQTLSLTCTVSGGSISNGGYHWSWIRQHPGKGLEWIGNIYYRGSTFYDPSLKSRVTISVDTSKSQFSLKLTSVTAADTAVYYCARMPLANYDLLTGLYIGAFDLWGQGTMVTVSS
# VL: DIVLTQSPATLSVSPGERATLSCRASQSVNRNLAWFQQIPGQAPRLLIFDASTRAADIPARFSGGGSGAEFTLTVSSLQPEDFAVYYCQQYDKWPPGFGQGTKVEIK
# notes: also called MAb TRL849
# B4: TRL845 (antibody, V domains shown)
# VH: QVQLVQSGGDLVQPGGSLRLSCAASGFTFSRYSMNWVRQAPGMGLEWVAYISDTSRTIYYADSVKGRFTISRDNAKNSLYLQMKSLRDEDTAVYYCARDPDTPFVRAFDSWGQGTLVTVSS
# VL: DIVLTQSPSFLSASVGDRVTITCRASQLISSYFAWYQQKPGKPPKLLIYAASTLQSGVPSRFSGSGSGTQFSLTISSLQPEDFATYYCQQLNSYPPITFGQGTRLEIK
# notes: also called MAb TRL845
# B5: TRL848 (antibody, V domains shown)
# VH: QVQLLESGGDVVQPGTSLRLSCAASGFSLWTSGMHWVRQAPGKGLEWVAVMSYDETKKYYADSVRGRFSISRDNSRNTLYLQMNSLRVEDTAVYFCAKPRLDYLDYFHAADSWGQGTLVSVSS
# VL: DIVLTQPPSVSVAPGQTATITCGGNYIGSKSVNWYQQRPGHAPVLVVYDDSDRPSGIPDRFSGSNSRSTATTATLTISRVEAGDEADYYCQVWETSEDLWVFGGGTKLTVL
# notes: also called MAb TRL848
# Biological target: T1, biotinylated HA antigen of B/Florida/04/2006 (Influenza B virus B/Florida/4/2006, UniProt E1TVD5, strain)
# T1 construct: also called HA of B/Florida/04/2006
# Experiment: BLI
# Conditions: both partners purified
Binder,binding result,Kd [nM]
B1,binds,
B2,binds,
B3,,≤ 0.2
B4,,≤ 0.2
B5,binds,

# Biological target: T2, hemagglutinin (HA) of influenza A virus A/California/07/2009 (H1N1, group 1) (Influenza A virus A/California/07/2009 …, UniProt C3W5X2, strain)
# T2 construct: also called A/California/07/2009 HA
# Experiment: ELISA
# Conditions: both partners purified
row,Binder,binding result
1,B1,no binding (tested: 5 μg/ml (30 nM))
2,B2,no binding (tested: 5 μg/ml (30 nM))
3,B3,no binding (tested: 5 μg/ml (30 nM))
4,B4,no binding (tested: 5 μg/ml (30 nM))
5,B5,no binding (tested: 5 μg/ml (30 nM))

# Biological target: T3, hemagglutinin (HA) of influenza A virus A/Sydney/05/1997 (H3N2, group 2) (Influenza A virus A/Sydney/5/1997 (H3N2), UniProt C3PR59, strain)
# T3 construct: also called A/Sydney/05/1997 HA
# Experiment: ELISA
# Conditions: both partners purified
row,Binder,binding result
1,B1,no binding (tested: 5 μg/ml (30 nM))
2,B2,no binding (tested: 5 μg/ml (30 nM))
3,B3,no binding (tested: 5 μg/ml (30 nM))
4,B4,no binding (tested: 5 μg/ml (30 nM))
5,B5,no binding (tested: 5 μg/ml (30 nM))
